# Source: patent publication US20170233472A1
# Assays:
# [1] = molecular target: human ROR1 expressed on the surface of cancer cells (human) (UniProt Q01973); assay: FACS on PC-3 cells (ROR1-expressing), isotype control, concentration not given; PE-A, Anti-EK Biotin
# [2] = molecular target: human ROR1 expressed on the surface of cancer cells (human) (UniProt Q01973); assay: FACS on HBL-2 cells (ROR1-expressing), isotype control, concentration not given; PE-A, Anti-EK Biotin
# human ROR1 expressed on the surface of cancer cells (human), sequence (Q01973 30-937): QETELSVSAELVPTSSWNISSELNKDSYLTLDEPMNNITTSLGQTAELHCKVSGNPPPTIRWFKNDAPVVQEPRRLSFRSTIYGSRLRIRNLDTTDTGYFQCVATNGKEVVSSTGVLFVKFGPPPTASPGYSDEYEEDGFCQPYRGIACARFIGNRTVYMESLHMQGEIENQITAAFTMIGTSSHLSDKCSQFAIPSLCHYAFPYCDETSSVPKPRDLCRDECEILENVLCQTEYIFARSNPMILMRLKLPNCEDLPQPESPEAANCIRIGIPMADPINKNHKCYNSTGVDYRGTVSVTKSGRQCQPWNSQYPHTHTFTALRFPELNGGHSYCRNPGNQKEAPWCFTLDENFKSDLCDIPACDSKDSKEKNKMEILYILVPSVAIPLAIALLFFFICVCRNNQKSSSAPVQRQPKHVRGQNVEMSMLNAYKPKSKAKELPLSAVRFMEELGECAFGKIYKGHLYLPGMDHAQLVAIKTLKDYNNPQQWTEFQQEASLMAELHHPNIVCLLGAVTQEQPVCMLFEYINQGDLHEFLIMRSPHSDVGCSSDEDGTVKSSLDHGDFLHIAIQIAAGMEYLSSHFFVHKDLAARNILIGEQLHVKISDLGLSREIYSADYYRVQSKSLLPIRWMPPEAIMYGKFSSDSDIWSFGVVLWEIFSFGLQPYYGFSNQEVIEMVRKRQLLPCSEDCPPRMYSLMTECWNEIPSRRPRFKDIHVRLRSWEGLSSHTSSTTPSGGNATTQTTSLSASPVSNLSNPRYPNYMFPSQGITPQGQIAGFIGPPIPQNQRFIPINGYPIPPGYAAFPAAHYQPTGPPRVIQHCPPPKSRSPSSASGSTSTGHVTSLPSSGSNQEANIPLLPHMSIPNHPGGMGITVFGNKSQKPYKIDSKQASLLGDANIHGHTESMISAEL
substance,measurement,setting,value
Isotype Control,Mean: PE-A,[1],85.2
same,Mean: PE-A,[2],13.8
